# Measured values: the nanobody polyreactivity screen of Harvey et al. (2022)
# Assay: yeast display, Sf9 membrane polyspecificity reagent, FACS + sequencing; frameworks hold sequencing errors
# Procedure, shortened: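 In a synthetic yeast display library (Saccharomyces cerevisiae BJ5465), nanobody expression was induced with galactose for 36–48 hours. FACS gates were set low and high (top ~1%) using anti-HA fluorescence for expression and streptavidin fluorescence for binding of the Sf9 membrane reagent. Each polyreactivity label is drawn from the gate of origin.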
row,Sequence,polyreactivity (PSR sort gate)
1,QVQLVESGGGLVQAGGSLRLSCAPSGSTFQYNAMGWYRQAPGKEREFVAAISWRGGNTYYADSVKGRFTISRDNAKNTVYLQMNSLKPEDTAVYYCAAGRQRYAFKYYYWGQGTQVTVSS,high polyreactivity
2,QVQLVESGGGLVQAGGSLRLSCAPSGSTFYRYSMGWYRHAPGKERELVAAINGGDITNYADSVKGRFTISRDNAKNTVYLQMNSLKPEDTAVYYCAARYTYWGLLRYDYWGQGTQVTVSS,high polyreactivity
3,QVQLVESGGGLVQAGGSLRLSCAPSGYIFAPNAMGWYRQAPGKERELVAAITFSGGSTSYADSVKGRFTISRDNAKNTVYLQMNSLKPEDTAVYYCAAYWYSLYYLFPYDYWGQGTLVTVSS,low polyreactivity
4,QVQLVESGGGLVQAGGSLRLSCAPSGYIFPEYVMGWYRQSPGKERELVAVITWDGTSTYADSVKGRFTISRDNAKNTVYLQMNSLIPVDTAVYYCAADTNYYVDTAGYGDGLDSWGQGTQVTVSS,low polyreactivity
5,QVQLVESGGGLVQAGGSLRLSCAPSRRIFSIYALGSYRQAPGKESELVAAIRWSGGSTYYADSVKGRFTISRDKEKNTVYLQMNSLTPEDTAVYYCNRYYQSYYGWTGPYGYWGQGTQVTVSS,high polyreactivity
6,QVQLVESGGGLVQAGGSLRLSCAPSRSTFWRYAMGWYRQAPGKERELFARISWSAGSTYYADSVKGRFTISRDNAKNTVYLQMNRLKPEDSAVYYCAAQPYKYSGRYQSKPYLLLYDYWGQGTQVTVSS,high polyreactivity
7,QVQLVESGGGLVQAGGSLRLSCASSGFIFRHYAMGWYRQAPGKARELVAVINWSGSSTYYADSVKGRFTISRDNAKNTVYLQMNSLKPEDTAVYYCAVRSLRVDKYGYWGQGTQVTVSS,high polyreactivity
8,QVQLVESGGGLVQAGGSLRLSCASSGFNFVYYSMGRYRQAPGKEREFVAAITERGGSTDYADSVKGRFTISRDHAKNTVYFQMNSLKPEDTAVYYCIARDVTLWDDVYQQDGSGYWGQGTQVTVSS,low polyreactivity
9,QVQLVESGGGLVQAGGSLRLSCASSGFTFIYYAMGWYRQAPGKERELVAAISGSGSTYYADSVKGRFTISRDNAKNTVYLQMNSLKPEDTAVYYCAADVTGGRKYDYWGQGTQVTVSS,low polyreactivity
10,QVQLVESGGGLVQAGGSLRLSCASSGFTFRYYTMGLYRQAPGKERELVASITWRGGSTYYADSVKGRFTISRDNAKNTVYLQMNCLKPEDTAVYYCNAERPYQYYPGIYRWYYYWGQGTQVTVSS,low polyreactivity
11,QVQLVESGGGLVQAGGSLRLSCASSGFTFYTNDMGWDRQAPGKERELVAAITWSGGSTYYADSVKGRFTISRDNAKNTVYFQMNSLKPEDTAVYYCAASIGQVTQRRYGTRYYYWGQGTQVTVSS,high polyreactivity
12,QVQLVESGGGLVQAGGSLRLSCASSGFTLVGYAMGWYRQAPGKERELVAAISYRGGSTYYADSVKGRFTISRDNAKNTVYLQMNSLKPEDNAVYYCAATYQGSSRSRGYWGQGTQVTVSS,high polyreactivity
13,QVQLVESGGGLVQAGGSLRLSCASSGIIFAQYTMGWYRQEPGKERELVAAINRNGGSTYYADSVKGRCTISRDNAKHTVYLQMNSLKPEDTAVYYCTKDIERYVRIYDSWGQGTQVTVSS,low polyreactivity
14,QVQLVESGGGLVQAGGSLRLSCASSGIIYNQNTMGWYRQAPGKERELVAAITFSGGRTSYADSVKGRFTISRDNAKNTFYLQMNSLKPEDSAVYYCNKALWGLYGYWGHGTQVTVSS,low polyreactivity
15,QVQLVESGGGLVQAGGSLRLSCASSGLTFALYAMGWYRQAPGKEREFVAAITGSGGSTYYADSVKGRFTISRDNAKHTVYLQMNSLKPEYTAVYYCNKLFYRWRIVDKYYYWGQGTQVTVSS,high polyreactivity
16,QVQLVESGGGLVQAGGSLRLSCASSGLTFGGYTMGLSRQAPGKERELVAAITSGGSTYYADSVKGRFTISRDNAKNTVYLQMNSLKPEDTAVYYCAARVRGWPVSKFGYWGQGTQVTVSS,high polyreactivity
17,QVQLVESGGGLVQAGGSLRLSCASSGLTSYSAMGWYRQAPGKERELGAAIDGSDGNTYYADSVKGRFTISRDNAMNTVYLQMKSLKPEDTAVYYCNAETVRYWWSWENDYWGQGTQVTVSS,high polyreactivity
18,QVQLVESGGGLVQAGGSLRLSCASSGNIFDIYAMGWYRQAPGKERELVAAITSSGGSTYYADSVKGRCTISRDNAKNTVYLQMNSLKPEDTAVYYCNAVSLVQKGDYWGQGTQVTVSS,high polyreactivity
19,QVQLVESGGGLVQAGGSLRLSCASSGNIFDRYAMGRYRPAPGKERELVAGITWSGGSTNYADSVKGRFTISRDNAKNTVYLQMNSLKPEDTAVYYCGQANYYWGQGSQVTVSS,low polyreactivity
20,QVQLVESGGGLVQAGGSLRLSCASSGNTFIENAMGWYRQAPGKERELVAAIDTGGSTYYADSVKGRFTISRDNAKNTVYLQMNSLKPEDSAVYYCTAVGLYLYRYIFGYLGKIGPGYDYWGQGTQVSVSS,low polyreactivity

row,Sequence,polyreactivity (PSR sort gate)
1,QVQLVESGGGLVQAGGSLRLSCASSGPIFVYKVKGWYRQAPGKERELVAAISWGTGSTYADSVKGRFTISRDNAKNTVYLQMYSLKPEDTAVYYCAAESFIPPYDHWGQGTQVTGSS,low polyreactivity
2,QVQLVESGGGLVQAGGSLRLSCASSGRIFDGNAMGWYRQAPGKERELVAAISWTGGSTYYADSVKGRFTISRDNAKNTVYLQMYSLKPVDTAVYYCAADSGWWLDQWSWYDYWGLGTQVTVSS,low polyreactivity
3,QVQLVESGGGLVQAGGSLRLSCASSGRIFDSNTMGWYRQAPGKERELVAAINWSDGSTYYADSVKGRFTISRDNAKYTVFLQMNSLKPEDTAVYYCNAGARRYLYDYWVQGTQVTVSS,low polyreactivity
4,QVQLVESGGGLVQAGGSLRLSCASSGRIFGGYAMGWYRQAPGTELELVAAISSGGSTYYADSVKGRFTISRDNAKNTVYLQMNSLKPEDTAVYYCYAYYPWRWGSYPFDYWGQGTQVTVSS,high polyreactivity
5,QVQLVESGGGLVQAGGSLRLSCASSGRIFSWYTMGWNRQAPGKVSELVPVITSGGTTKYADSEKGRFTISRDNAKNTVYLQMNSLKPEDTAVYYCNVAGRDYAVRWGSFDYWGQGTQVTVSS,low polyreactivity
6,QVQLVESGGGLVQAGGSLRLSCASSGRIFWRNAMGWYRQAPGKERELVAAITSGGRTNYADSVKGRFTISRDNAKNPVYLQMNSLKPEDTAVYYCNALWRGRYGYWGQGTQVTVSS,high polyreactivity
7,QVQLVESGGGLVQAGGSLRLSCASSGRIFWTYAMGWYRQAPGKERELVAAITSGGSTYYADSVKGRFTISRDKAKNTVYLQMNSLKPEDTAVLYCAATSYYYNFLEHDYWGQGTQVTVSS,high polyreactivity
8,QVQLVESGGGLVQAGGSLRLSCASSGRIFYYNTMGWYRQAPGKERELVAAINWSGTSTYYADSVKGRFTISRDNAKNTVYLQMNSLKPEDTAVYYCAAYYRYRVTYDYYYWGQGTQVTVSS,high polyreactivity
9,QVQLVESGGGLVQAGGSLRLSCASSGRNFGYDGMGWYRQAPGKERELVAAITYRGGSTYYADSVKGRFTISRDNAKNTVYLQMNSLKPEDTAVYYCAADGYSHYRYLYDYWGQGTQVTVSS,low polyreactivity
10,QVQLVESGGGLVQAGGSLRLSCASSGRNFRGYAMGWYRQAPGKEREFVAAITKNGGSTYYADSVKGRFTISRDNAKNTVYLQMNSLKPEDTAVYYCAVRAWDPYTGKSDYWGQGTQVTVSS,low polyreactivity
11,QVQLVESGGGLVQAGGSLRLSCASSGRTFGINAMGWYRQAPGKERELVAVISFGDGGTYYADSVKGRFTISRDNAKNTVYLQMNSLNPEDSAVYYCATDYQSTSVWGGHFVINPYDYWGQGTQVTVSS,low polyreactivity
12,QVQLVESGGGLVQAGGSLRLSCASSGRTFNPYAMGWYRQAPGKERELVAAISRSGGGTYYADSVKGRCTISRDNAKNTVYLQMNSLKPEDTAVYYCNADRATCWEQWWYDNWGQGTQVTVSS,low polyreactivity
13,QVQLVESGGGLVQAGGSLRLSCASSGRTFSYYALGWSRQAPGKERELVAAITSGGSTYYADSVKGRFTISRDNAKNTVYLQMNSLKPEDTAVYYCAADPGDDYWGQGTQVTVSS,low polyreactivity
14,QVQLVESGGGLVQAGGSLRLSCASSGRTFSYYAMGWYRQAPGKERELVAAISTSGGSTYYADSVKGRFTISRDNAKNTVYLQMNSLKPEDTAVYYWAASPYLRFLYGGFGYWGQGTEVTVSS,high polyreactivity
15,QVQLVESGGGLVQAGGSLRLSCASSGRTSLNYAMGWYRQAPGKDRELVAAITSGGGGTYYADSVKGRFTISRDNAKNTVYLQMYRLKPEVTALYYCGAKFPARRKLSKVGFDYWGQGTQVSVSS,high polyreactivity
16,QVQLVESGGGLVQAGGSLRLSCASSGSIFEANAMGWYRQAPGIESELVAAISTTGGNTYYADSVKGRFTISRDNAKNTVYLQMNSLKPEDTAVYYCAADPSQPRIDSSNYDYWGQGTQVTVSS,low polyreactivity
17,QVQLVESGGGLVQAGGSLRLSCASSGSIFEGYVMGWYRQAPGKERELVAAITTGGGSTYYADSVKGRFTISRDNAKNTVYLQMTSLKPEDTAVYYCAKDYWFGYEYWGQGTQVTVSS,low polyreactivity
18,QVQLVESGGGLVQAGGSLRLSCASSGSIFFGYGMGWYRQAPGKERELVATITTSGGTYYADSVKGRFRISRDNAKNTDYLQMNSLKPEDTAVYYCAATAAALDGNTIMYYWGQGTQVTVSS,low polyreactivity
19,QVQLVESGGGLVQAGGSLRLSCASSGSIFSSNTMGWYRQAPGKERELVAAITVSGGRTYYADSVKGRFTISRDNAKNTVYLQMNSLKPEDTAVYFCAARYANTYRTETSYPRYYSWGQGTHVTVSS,high polyreactivity
20,QVQLVESGGGLVQAGGSLRLSCASSGSIFWQNTMGWYRQAPGKERELVATITSAGSTYYADSVKGRFTISRDNAKNTVYLQMNSLKPEDTAVYYCAKGHQPGHVFHPEYGYDYWGQGTQVTVSS,low polyreactivity
